{"source": "paper PMC5410337", "about": "“Anti-cancer effect of novel PAK1 inhibitor via induction of PUMA-mediated cell death and p21-mediated cell cycle arrest” (Oncotarget, 2017)", "binders": {"B1": {"name": "GST-PAK1 N-terminal domain (residues 70-149) (domain or fragment, human, UniProt Q13153 70-149, looked up)", "chain": "KERPEISLPSDFEHTIHVGFDAVTGEFTGMPEQWARLLQTSNITKSEQKKNPQAVLDVLEFYNSKKTSNSQKYMSFTDKS", "notes": "Cloned in pGEX-TEV (pGEX-4T1 with a TEV site); pGEX vectors put GST at the N-terminus (surmised); GST is kept on agarose beads in the pull-downs; the discussion says the N-terminal region of PAK1 was used for the screening; also called PAK1 recombinant protein; N-terminal region of PAK1"}}, "target": "T1, recombinant full-length human PUMA (residue 1-193) (human, UniProt Q9BXH1 1-193)", "T1 construct": "Expressed as a GST fusion from pGEX-TEV (TEV site present); also called PUMA protein", "T1 sequence (looked up)": "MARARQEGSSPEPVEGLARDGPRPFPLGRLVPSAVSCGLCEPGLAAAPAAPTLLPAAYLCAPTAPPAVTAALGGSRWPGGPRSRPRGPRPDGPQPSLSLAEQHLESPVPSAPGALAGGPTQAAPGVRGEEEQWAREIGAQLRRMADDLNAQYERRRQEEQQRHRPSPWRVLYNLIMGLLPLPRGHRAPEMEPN", "assay": "ELISA; PAK1 recombinant protein immobilised on a 96-well plate with 0.5% paraformaldehyde; chemicals (25 or 50 uM) added, then PUMA protein, 2 hr; detected with anti-PUMA antibody and anti-rabbit IgG-HRP, absorbance at 450 nm", "conditions": "both partners purified", "data": [{"binder": "B1", "values": [{"measurement": "binding result", "result": "binds"}]}]}
